# Assay results taken from patent publication US20210380657A1 (COUNCIL OF THE QUEENSLAND INSTITUTE OF MEDICAL RESEARCH, published 2021).
# Tests used:
# [1] = target: HLA-A*24:02-… (human; Epstein Barr Virus); experiment: HLA-peptide multimer staining and single-cell sorting of CD8+ T cells, paired TCR sequencing
# Protocol: (§1) T cell lines were labelled with an allophycocyanin (APC)-conjugated HLA-peptide multimer (ProImmune Ltd., Oxford, UK) by incubation for 30 minutes at room temperature. Cells were then washed and incubated with Cy5.5-PerCP conjugated anti-human CD8 mAb (BioLegend, San Diego, Calif.) for 30 minutes at 4° C. Cells were washed, analyzed and sorted as single cells into 96-well PCR plates (Eppendorf, Hamburg, Germany) using the FACS Aria III flow cytometer (BD Biosciences).
# [2] = target: HLA-A*11:01-… (human; Epstein Barr Virus); experiment: as above
# Protocol: as §1
Binder,binding result [1],binding result [2]
"TCR Clone 3 of Donor Y6W in Table 5 (TCR, V domains shown, also called Donor Y6W Clone 3) V domain 1: GENVEQHPSTLSVQEGDSAVIKCTYSDSASNYFPWYKQELGKGPQLIIDIRSNVGEKKDQRIAVTLNKTAKHFSLHITETQPEDSAVYFCAASEFQFYFGTGTSLTVIP V domain 2: DSGVTQTPKHLITATGQRVTLRCSPRSGDLSVYWYQQSLDQGLQFLIQYYNGEERAKGNILERFSAQQFPDLHSELNLSSLELGDSALYFCASSPGQRANTGELFFGEGSRLTVLE",binds,
"TCR Clone 13 of Donor Y6W in Table 5 (TCR, V domains shown, also called Donor Y6W Clone 13) V domain 1: AQSVTQPDIHITVSEGASLELRCNYSYGATPYLFWYVQSPGQGLQLLLKYFSGDTLVQGIKGFEAEFKRSQSSFNLRKPSVHWSDAAEYFCAAPGVGSNSGYALNFGKGTSLLVTP V domain 2: DSGVTQTPKHLITATGQRVTLRCSPRSGDLSVYWYQQSLDQGLQFLIQYYNGEERAKGNILERFSAQQFPDLHSELNLSSLELGDSALYFCASSPSWAANSPLHFGNGTRLTVTE",binds,
"TCR Clone 1 of Donor R7Z in Table 3 (TCR, V domains shown, also called Donor R7Z Clone 1) V domain 1: KQEVTQIPAALSVPEGENLVLNCSFTDSAIYNLQWFRQDPGKGLTSLLLIQSSQREQTSGRLNASLDKSSGRSTLYIAASQPGDSATYLCAVWAGGTSYGKLTFGQGTILTVHP V domain 2: DVKVTQSSRYLVKRTGEKVFLECVQDMDHENMFWYRQDPGLGLRLIYFSYDVKMKEKGDIPEGYSVSREKKERFSLILESASTNQTSMYLCASSPAGRPGKPLHFGNGTRLTVTE",,binds
"TCR Clone 14 of Donor Y6W in Table 5 (TCR, V domains shown, also called Donor Y6W Clone 14) V domain 1: TGQNIDQPTEMTATEGAIVQINCTYQTSGFNGLFWYQQHAGEAPTFLSYNVLDGLEEKGRFSSFLSRSKGYSYLLLKELQMKDSASYLCAGEDQTGANNLFFGTGTRLTVIP V domain 2: DVKVTQSSRYLVKRTGEKVFLECVQDMDHENMFWYRQDPGLGLRLIYFSYDVKMKEKGDIPEGYSVSREKKERFSLILESASTNQTSMYLCASGTLSYNEQFFGPGTRLTVLE",binds,
"TCR Clone 2 of Donor Y6W in Table 5 (TCR, V domains shown, also called Donor Y6W Clone 2) V domain 1: QKEVEQNSGPLSVPEGAIASLNCTYSDRGSQSFFWYRQYSGKSPELIMFIYSNGDKEDGRFTAQLNKASQYVSLLIRDSQPSDSATYLCAVNVGNTGFQKLVFGTGTRLLVSP V domain 2: SQTIHQWPATLVQPVGSPLSLECTVEGTSNPNLYWYRQAAGRGLQLLFYSVGIGQISSEVPQNLSASRPQDRQFILSSKKLLLSDSGFYLCACQWQGLGGELFFGEGSRLTVLE",binds,
"TCR Clone 5 of Donor R7Z in Table 3 (TCR, V domains shown, also called Donor R7Z Clone 5) V domain 1: GIQVEQSPPDLILQEGANSTLRCNFSDSVNNLQWFHQNPWGQLINLFYIPSGTKQNGRLSATTVATERYSLLYISSSQTTDSGVYFCAVVGNNDMRFGAGTRLTVKP V domain 2: DSGVTQTPKHLITATGQRVTLRCSPRSGDLSVYWYQQSLDQGLQFLIQYYNGEERAKGNILERFSAQQFPDLHSELNLSSLELGDSALYFCASSVAPWYEQYFGPGTRLTVTE",,binds
"TCR Clone 1 of Donor B5F in Table 3 (TCR, V domains shown, also called Donor B5F Clone 1) V domain 1: GIQVEQSPPDLILQEGANSTLRCNFSDSVNNLQWFHQNPWGQLINLFYIPSGTKQNGRLSATTVATERYSLLYISSSQTTDSGVYFCAVLNNNDMRFGAGTRLTVKP V domain 2: DSGVTQTPKHLITATGQRVTLRCSPRSGDLSVYWYQQSLDQGLQFLIQYYNGEERAKGNILERFSAQQFPDLHSELNLSSLELGDSALYFCASSVSSWYEQFFGPGTRLTVLE",,binds
"TCR Clone 2 of Donor R7Z in Table 3 (TCR, V domains shown, also called Donor R7Z Clone 2) V domain 1: GIQVEQSPPDLILQEGANSTLRCNFSDSVNNLQWFHQNPWGQLINLFYIPSGTKQNGRLSATTVATERYSLLYISSSQTTDSGVYFCAVVINNDMRFGAGTRLTVKP V domain 2: DSGVTQTPKHLITATGQRVTLRCSPRSGDLSVYWYQQSLDQGLQFLIQYYNGEERAKGNILERFSAQQFPDLHSELNLSSLELGDSALYFCASSVAPFYEQYFGPGTRLTVTE",,binds
"TCR Clone 10 of Donor Y6W in Table 5 (TCR, V domains shown, also called Donor Y6W Clone 10) V domain 1: RKEVEQDPGPFNVPEGATVAFNCTYSNSASQSFFWYRQDCRKEPKLLMSVYSSGNEDGRFTAQLNRASQYISLLIRDSKLSDSATYLCVLSGAGSYQLTFGKGTKLSVIP V domain 2: NAGVTQTPKFQVLKTGQSMTLQCAQDMNHNSMYWYRQDPGMGLRLIYYSASEGTTDKGEVPNGYNVSRLNKREFSLRLESAAPSQTSVYFCASSEWREETQYFGPGTRLLVLE",binds,
"TCR Clone 6 of Donor Y6W in Table 5 (TCR, V domains shown, also called Donor Y6W Clone 6) V domain 1: QKEVEQNSGPLSVPEGAIASLNCTYSDRGSQSFFWYRQYSGKSPELIMFIYSNGDKEDGRFTAQLNKASQYVSLLIRDSQPSDSATYLCAAEPFSSYKLIFGSGTRLLVRP V domain 2: GAGVSQSPSNKVTEKGKDVELRCDPISGHTALYWYRQSLGQGLEFLIYFQGNSAPDKSGLPSDRFSAERTGGSVSTLTIQRTQQEDSAVYLCASSFIGGTGLNEQFFGPGTRLTVLE",binds,
"TCR Clone 8 of Donor Y6W in Table 5 (TCR, V domains shown, also called Donor Y6W Clone 8) V domain 1: KTTQPPSMDCAEGRAANLPCNHSTISGNEYVYWYRQIHSQGPQYIIHGLKNNETNEMASLIITEDRKSSTLILPHATLRDTAVYYCIVRVAGGTSYGKLTFGQGTILTVHP V domain 2: SQTIHQWPATLVQPVGSPLSLECTVEGTSNPNLYWYRQAAGRGLQLLFYSVGIGQISSEVPQNLSASRPQDRQFILSSKKLLLSDSGFYLCAWSSAPDRGHRQPQHFGDGTRLSILE",binds,
"TCR Clone 1 of Donor T3V in Table 3 (TCR, V domains shown, also called Donor T3V Clone 1) V domain 1: DQQVKQNSPSLSVQEGRISILNCDYTNSMFDYFLWYKKYPAEGPTFLISISSIKDKNEDGRFTVFLNKSAKHLSLHIVPSQPGDSAVYFCAASAGGQNFVFGPGTRLSVLP V domain 2: DAGITQSPRHKVTETGTPVTLRCHQTENHRYMYWYRQDPGHGLRLIHYSYGVKDTDKGEVSDGYSVSRSKTEDFLLTLESATSSQTSVYFCAIRRGGSSYNEQFFGPGTRLTVLE",,binds
"TCR Clone 2 of Donor B5F in Table 3 (TCR, V domains shown, also called Donor B5F Clone 2) V domain 1: GESVGLHLPTLSVQEGDNSIINCAYSNSASDYFIWYKQESGKGPQFIIDIRSNMDKRQGQRVTVLLNKTVKHLSLQIAATQPGDSAVYFCAETPGGYQKVTFGTGTKLQVIP V domain 2: EAQVTQNPRYLITVTGKKLTVTCSQNMNHEYMSWYRQDPGLGLRQIYYSMNVEVTDKGDVPEGYKVSRKEKRNFPLILESPSPNQTSLYFCASSLWTSNSPLHFGNGTRLTVTE",,binds
"TCR Clone 1 of Donor B33 in Table 5 (TCR, V domains shown, also called Donor B33 Clone 1) V domain 1: GQQVMQIPQYQHVQEGEDFTTYCNSSTTLSNIQWYKQRPGGHPVFLIQLVKSGEVKKQKRLTFQFGEAKKNSSLHITATQTTDVGTYFCAGPGTGAGSYQLTFGKGTKLSVIP V domain 2: DVKVTQSSRYLVKRTGEKVFLECVQDMDHENMFWYRQDPGLGLRLIYFSYDVKMKEKGDIPEGYSVSREKKERFSLILESASTNQTSMYLCASIKSSGYNEQFFGPGTRLTVLE",binds,
"TCR Clone 1 of Donor B5F in Table 5 (TCR, V domains shown, also called Donor B5F Clone 1) V domain 1: GQQVMQIPQYQHVQEGEDFTTYCNSSTTLSNIQWYKQRPGGHPVFLIQLVKSGEVKKQKRLTFQFGEAKKNSSLHITATQTTDVGTYFCAGPYSGAGSYQLTFGKGTKLSVIP V domain 2: DVKVTQSSRYLVKRTGEKVFLECVQDMDHENMFWYRQDPGLGLRLIYFSYDVKMKEKGDIPEGYSVSREKKERFSLILESASTNQTSMYLCASILSSGYNEQFFGPGTRLTVLE",binds,
"TCR Clone 3 of Donor R7Z in Table 3 (TCR, V domains shown, also called Donor R7Z Clone 3) V domain 1: AQSVAQPEDQVNVAEGNPLTVKCTYSVSGNPYLFWYVQYPNRGLQFLLKYITGDNLVKGSYGFEAEFNKSQTSFHLKKPSALVSDSALYFCAVREASGANNLFFGTGTRLTVIP V domain 2: SQTIHQWPATLVQPVGSPLSLECTVEGTSNPNLYWYRQAAGRGLQLLFYSVGIGQISSEVPQNLSASRPQDRQFILSSKKLLLSDSGFYLCAWSPQGNSPLHFGNGTRLTVTE",,binds
"TCR Clone 1 of Donor A4T in Table 3 (TCR, V domains shown, also called Donor A4T Clone 1) V domain 1: DQQVKQNSPSLSVQEGRISILNCDYTNSMFDYFLWYKKYPAEGPTFLISISSIKDKNEDGRFTVFLNKSAKHLSLHIVPSQPGDSAVYFCAASGLVEGNTPLVFGKGTRLSVIA V domain 2: EAGVAQSPRYKIIEKRQSVAFWCNPISGHATLYWYQQILGQGPKLLIQFQNNGVVDDSQLPKDRFSAERLKGVDSTLKIQPAKLEDSAVYLCASSLFPGTGIHEQYFGPGTRLTVTE",,binds
"TCR Clone 1 of Donor Y6W in Table 5 (TCR, V domains shown, also called Donor Y6W Clone 1) V domain 1: SLAKTTQPISMDSYEGQEVNITCSHNNIATNDYITWYQQFPSQGPRFIIQGYKTKVTNEVASLFIPADRKSSTLSLPRVSLSDTAVYYCLVVPFGGYNKLIFGAGTRLAVHP V domain 2: SAVISQKPSRDICQRGTSLTIQCQVDSQVTMMFWYRQQPGQSLTLIATANQGSEATYESGFVIDKFPISRPNLTFSTLTVSNMSPEDSSIYLCSVGEGTSGYESYNEQFFGPGTRLTVLE",binds,
"TCR Clone 3 of Donor T3V in Table 3 (TCR, V domains shown, also called Donor T3V Clone 3) V domain 1: AGQSLEQPSEVTAVEGAIVQINCTYQTSGFYGLSWYQQHDGGAPTFLSYNALDGLEETGRFSSFLSRSDSYGYLLLQELQMKDSASYFCAVPRRNNNARLMFGDGTQLVVKP V domain 2: EAQVTQNPRYLITVTGKKLTVTCSQNMNHEYMSWYRQDPGLGLRQIYYSMNVEVTDKGDVPEGYKVSRKEKRNFPLILESPSPNQTSLYFCASSLNTGMNTEAFFGQGTRLTVVE",,binds
"TCR Clone 1 of Donor P6G in Table 3 (TCR, V domains shown, also called Donor P6G Clone 1) V domain 1: KQEVTQIPAALSVPEGENLVLNCSFTDSAIYNLQWFRQDPGKGLTSLLLIQSSQREQTSGRLNASLDKSSGRSTLYIAASQPGDSATYLCAVGGDDSGAGSYQLTFGKGTKLSVIP V domain 2: DSGVTQTPKHLITATGQRVTLRCSPRSGDLSVYWYQQSLDQGLQFLIQYYNGEERAKGNILERFSAQQFPDLHSELNLSSLELGDSALYFCASSRPEGIYNEQFFGPGTRLTVLE",,binds
"TCR Clone 4 of Donor R7Z in Table 3 (TCR, V domains shown, also called Donor R7Z Clone 4) V domain 1: AQSVTQLDSHVSVSEGTPVLLRCNYSSSYSPSLFWYVQHPNKGLQLLLKYTSAATLVKGINGFEAEFKKSETSFHLTKPSAHMSDAAEYFCVVSYLGDTGRRALTFGSGTRLQVQP V domain 2: EPEVTQTPSHQVTQMGQEVILRCVPISNHLYFYWYRQILGQKVEFLVSFYNNEISEKSEIFDDQFSVERPDGSNFTLKIRSTKLEDSAMYFCASSESGSPTGELFFGEGSRLTVLE",,binds
